Source: publication PMC139967 (BMC Biochemistry, 2002)

Columns and labels:
bovine-brain calmodulin = bovine-brain calmodulin (bovine, UniProt P62157 1-149); assay: other fluorescence titration
[1] = biological target: Alexa Fluor 488 calmodulin (UniProt P62157 1-149); assay: other fluorescence titration

CRKHSIATFLQARWRGYHQRQKFL [bullfrog Myo1c IQ1 peptide]
stoichiometry N (bovine-brain calmodulin): 1 peptide per calmodulin

CHMKHSAVEIQSWWRGTIGRRKAA [bullfrog Myo1c IQ2 peptide]
stoichiometry N (bovine-brain calmodulin): 1 peptide per calmodulin

CKRKWAVDVVRRFIKGFIYRNQPR [bullfrog Myo1c IQ3 peptide]
Kd [1]: 2000 nM | stoichiometry N (bovine-brain calmodulin): 1 peptide per calmodulin
